Paper PMC11362597, “Neutrophil-specific interactome of ARHGAP25 reveals novel partners and regulatory insights” (Scientific Reports, 2024)

T1: GST-fused recombinant ARHGAP25 (human, UniProt P42331 1-645)
T1 construct: also called GST-ARHGAP25; GST-tagged recombinant ARHGAP25
T1 sequence (looked up): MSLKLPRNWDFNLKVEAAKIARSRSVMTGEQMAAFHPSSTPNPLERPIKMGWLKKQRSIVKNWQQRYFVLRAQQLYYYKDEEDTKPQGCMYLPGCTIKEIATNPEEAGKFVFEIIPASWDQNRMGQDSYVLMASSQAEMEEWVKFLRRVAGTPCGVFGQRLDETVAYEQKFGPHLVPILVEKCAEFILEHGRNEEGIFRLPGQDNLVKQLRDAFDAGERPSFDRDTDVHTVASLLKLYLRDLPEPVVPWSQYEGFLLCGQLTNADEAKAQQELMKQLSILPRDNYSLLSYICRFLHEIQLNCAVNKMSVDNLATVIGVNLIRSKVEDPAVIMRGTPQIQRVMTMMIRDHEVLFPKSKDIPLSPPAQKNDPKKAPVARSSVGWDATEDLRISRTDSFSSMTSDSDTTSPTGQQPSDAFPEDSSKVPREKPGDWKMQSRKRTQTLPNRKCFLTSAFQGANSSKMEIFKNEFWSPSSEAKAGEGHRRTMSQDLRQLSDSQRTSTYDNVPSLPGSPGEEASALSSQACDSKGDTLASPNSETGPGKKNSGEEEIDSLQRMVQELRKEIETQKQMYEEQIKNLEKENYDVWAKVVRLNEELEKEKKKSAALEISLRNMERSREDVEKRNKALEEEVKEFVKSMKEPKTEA

B1: RAB27A (natural protein, UniProt P51159 1-221, looked up)
chain: MSDGDYDYLIKFLALGDSGVGKTSVLYQYTDGKFNSKFITTVGIDFREKRVVYRASGPDGATGRGQRIHLQLWDTAGQERFRSLTTAFFRDAMGFLLLFDLTNEQSFLNVRNWISQLQMHAYCENPDIVLCGNKSDLEDQRVVKEEEAIALAEKYGIPYFETSAANGTNISQAIEMLLDLIMKRMERCVDKSWIPEGVVRSNGHASTDQLSEEKEKGACGC
notes: RAB27A, small GTPase, endogenous in human neutrophilic granulocytes; In some pull-downs the lysate was loaded with GTPγS or GDPβS beforehand; source: endogenous, human neutrophilic granulocyte lysate
B2: ARF4 (natural protein, UniProt P18085 1-180, looked up)
chain: MGLTISSLFSRLFGKKQMRILMVGLDAAGKTTILYKLKLGEIVTTIPTIGFNVETVEYKNICFTVWDVGGQDRIRPLWKHYFQNTQGLIFVVDSNDRERIQEVADELQKMLLVDELRDAVLLLFANKQDLPNAMAISEMTDKLGLQSLRNRTWYVQATCATQGTGLYEGLDWLSNELSKR
notes: ARF4, small GTPase, endogenous in human neutrophilic granulocytes; In some pull-downs the lysate was loaded with GTPγS or GDPβS beforehand; source: endogenous, human neutrophilic granulocyte lysate
B3: RHOG (natural protein)
chain: not shown
notes: RHOG, small GTPase of the Rac subfamily, endogenous in human neutrophilic granulocytes; In some pull-downs the lysate was loaded with GTPγS or GDPβS beforehand; source: endogenous, human neutrophilic granulocyte lysate

target: T1, GST-fused recombinant ARHGAP25; assay: affinity purification with mass spectrometry; GST-ARHGAP25 on glutathione agarose beads incubated with neutrophil lysate loaded beforehand with GTPγS or GDPβS (15 mM EDTA, 15 min, RT; stopped with 60 mM MgCl2), 45 min, 4 °C; LFQ values of the two loadings compared; conditions: one partner purified

| log2ΔFC of LFQ values, GTPγS-loaded against GDPβS-loaded lysate | Binder |
| --- | --- |
| < 0.2 | B1 |
| < 0.2 | B2 |
| 0.589 | B3 |
